Results taken from PMC12246617, “Cryo-EM structures reveal the PP2A–B55α and Eya3 interaction that can be disrupted by a peptide inhibitor” (The Journal of Biological Chemistry, 2025).
pKd: −log10 of the molar value.

Target: His-hB55 (human PP2A regulatory subunit B55α) (human) (UniProt P63151)
Experiment: MST; His-B55 labelled with RED-Tris-NTA dye, added to serial dilutions of mEya3 (wild type or mutant) in PBS with 0.05% Tween-20; Monolith NT.115 Pico

His-hB55 (human PP2A regulatory subunit B55α) (human), sequence (P63151 whole entry): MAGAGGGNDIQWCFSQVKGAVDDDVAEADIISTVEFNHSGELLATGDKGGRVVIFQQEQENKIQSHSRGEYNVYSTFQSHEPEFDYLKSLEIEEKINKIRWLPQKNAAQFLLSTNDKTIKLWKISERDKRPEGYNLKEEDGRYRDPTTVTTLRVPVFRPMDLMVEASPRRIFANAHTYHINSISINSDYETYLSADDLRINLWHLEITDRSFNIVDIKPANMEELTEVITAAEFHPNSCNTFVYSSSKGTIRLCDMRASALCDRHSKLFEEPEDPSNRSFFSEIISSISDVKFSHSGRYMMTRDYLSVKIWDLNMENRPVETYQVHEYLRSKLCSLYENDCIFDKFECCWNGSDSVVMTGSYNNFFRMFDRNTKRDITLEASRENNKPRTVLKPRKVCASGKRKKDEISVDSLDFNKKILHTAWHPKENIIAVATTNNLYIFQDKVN

pKd: 5.98
Substance: mouse Eya3 (mEya3), wild type (from UniProt P97480 1-510) (natural protein)
